Results taken from patent publication EP1141005B1.
One block for each substance: values may come before it.

Tests used:
Assay in all cases: cell-based or functional assay
[1] = molecular target: GAL4/Arnt 128-774 (UniProt P04386)
[2] = molecular target: GAL4/Arnt 128-603 (UniProt P04386)
[3] = molecular target: HIF-1α (wild-type human HIF-1α expressed from pCMV4/HIF-1α) (human) (UniProt Q16665)
[4] = molecular target: GAL4/HIF 526-826 (human)
[5] = molecular target: GFP-HIF-1α (in-frame fusion of green fluorescent protein with full-length HIF-1α) (Aequeora victoria; human) [GFP: P42212]
[6] = molecular target: GAL4/HIF 1-813 (human)
[7] = molecular target: GAL4/HIF 776-826 (human)
[8] = molecular target: GAL4/HIF 71-826 (human)
[9] = molecular target: GAL4/HIF 531-584 (human)

Sequence of HIF-1α (wild-type human HIF-1α expressed from pCMV4/HIF-1α) (human) (Q16665 whole entry, the tested form may be a part): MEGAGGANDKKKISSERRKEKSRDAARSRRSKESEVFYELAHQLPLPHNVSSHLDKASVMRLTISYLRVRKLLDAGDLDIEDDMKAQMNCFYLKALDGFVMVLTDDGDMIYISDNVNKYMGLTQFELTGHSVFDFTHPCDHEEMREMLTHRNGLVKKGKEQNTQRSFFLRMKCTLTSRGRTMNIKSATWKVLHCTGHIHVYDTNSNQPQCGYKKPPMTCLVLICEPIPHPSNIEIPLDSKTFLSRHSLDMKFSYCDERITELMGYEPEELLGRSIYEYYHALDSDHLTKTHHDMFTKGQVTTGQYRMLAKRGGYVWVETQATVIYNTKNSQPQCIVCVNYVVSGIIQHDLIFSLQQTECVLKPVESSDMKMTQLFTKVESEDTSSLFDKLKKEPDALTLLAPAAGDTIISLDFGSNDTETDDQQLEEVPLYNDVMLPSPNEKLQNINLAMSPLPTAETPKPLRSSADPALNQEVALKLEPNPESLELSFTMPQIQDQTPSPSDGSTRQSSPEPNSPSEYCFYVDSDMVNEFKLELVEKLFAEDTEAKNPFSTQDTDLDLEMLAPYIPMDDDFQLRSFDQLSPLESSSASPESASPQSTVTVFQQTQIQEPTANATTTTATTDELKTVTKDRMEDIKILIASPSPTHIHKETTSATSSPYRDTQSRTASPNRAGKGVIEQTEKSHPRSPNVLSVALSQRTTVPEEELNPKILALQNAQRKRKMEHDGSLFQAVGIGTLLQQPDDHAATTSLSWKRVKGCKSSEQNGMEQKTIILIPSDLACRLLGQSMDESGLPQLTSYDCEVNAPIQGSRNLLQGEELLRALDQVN

GAL4-responsive reporter gene activity, COS7, normoxia, against the GAL4 fusion protein alone [1]: 4 fold
GAL4-responsive reporter gene activity, COS7, normoxia [2]: 5 fold
Substance: HIF-1α (wild-type human HIF-1α expressed from pCMV4/HIF-1α) (from UniProt Q16665 1-826)

pT81/HRE-luc reporter gene activity, COS7, hypoxia over the levels at normoxia [3]: 12 fold
Substance: TIF2 (transcriptional coactivator TIF2) (from UniProt Q15596 1-1464)

GAL4-responsive reporter gene activity, COS7, transient expression of CBP [4]: 7 to 9 fold
pT81/HRE-luc reporter gene activity, COS7 coexpressing HIF-1α and Arnt, hypoxia, against hypoxia without exogenous coactivator [3]: 2 to 3 fold
HRE-dependent reporter gene activity, COS7, hypoxia with CBP over the levels at normoxia [5]: 15 fold
HRE-dependent reporter gene activity, COS7, hypoxia, enhancement by coexpressed CBP [5]: 3 fold
GAL4-responsive reporter gene activity, COS7, hypoxia, overexpression of CBP [6]: 14 fold
GAL4-responsive reporter gene activity, COS7, in the presence of CBP [7]: 29 fold
luciferase activity, GAL4-responsive reporter, COS7, hypoxia with CBP against hypoxia without exogenous coactivators [8]: 30 fold
GAL4-responsive reporter gene activity, COS7, hypoxic cells, in the presence of CBP [9]: 11 fold
Substance: CBP (CREB binding protein, full-length mouse CBP expressed from pRc/RSV-mCBP-HA) (from UniProt P45481 1-2441)

hypoxia-dependent activation of a GAL4-responsive reporter, COS7, Ref-1 coexpressed in the presence of CBP and SRC-1 [7]: 53 fold
hypoxia-dependent activation of a GAL4-responsive reporter, COS7, Ref-1 coexpressed in the presence of CBP and SRC-1 [9]: 12 fold
Substance: Ref-1 (nuclear redox regulator Ref-1 expressed from pCMV5/Ref-1) (from UniProt P27695 1-318) (enzyme)
